Assay results taken from article PMC539286.

Biological target: HTLV receptor (Glut1, the ubiquitous vertebrate glucose transporter) on human cells (human (endogenous in 293T)) (UniProt P11166)
Sequence of UniProt P11166 (P11166 whole entry): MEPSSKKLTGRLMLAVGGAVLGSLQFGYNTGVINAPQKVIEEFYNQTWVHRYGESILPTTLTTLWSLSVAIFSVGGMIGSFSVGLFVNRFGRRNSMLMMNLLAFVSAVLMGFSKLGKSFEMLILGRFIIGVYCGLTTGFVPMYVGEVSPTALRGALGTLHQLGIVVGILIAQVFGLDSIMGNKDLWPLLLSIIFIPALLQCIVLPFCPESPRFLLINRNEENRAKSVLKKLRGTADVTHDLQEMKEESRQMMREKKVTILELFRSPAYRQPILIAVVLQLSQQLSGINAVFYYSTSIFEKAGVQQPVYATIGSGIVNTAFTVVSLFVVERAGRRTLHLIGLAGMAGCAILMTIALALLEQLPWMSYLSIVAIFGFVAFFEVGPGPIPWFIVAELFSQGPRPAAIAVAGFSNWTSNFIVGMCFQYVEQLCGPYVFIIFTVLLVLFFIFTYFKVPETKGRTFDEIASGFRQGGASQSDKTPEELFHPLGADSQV

Question: Which HTLV Env-mediated cell fusion with target cells that express the mutant, percent of control fusion does the source give for “H1(Y114A)SU, H1_(215)SU subdomain with Tyr114 mutated to Ala (from UniProt P23064 21-215) (Fc fusion)” here?
Answer: 56 % of control

Question: And the MLV(HTLV) pseudotype infection of target cells that express the mutant, percent of control infection?
Answer: 46 % of control
